# Measurements from patent US20240245805A1 (Orna Therapeutics, Inc., priority 2020, published 2024).
# B1: Hepatovirus G1 (nucleic acid, listed as Hepatovirus sp.)
# DNA: GCAAGGGGTGGTTTTAACCTTGCACGCGTTTACCGTGCGTTAACGGTTTTCCATGTTTGTATGTCTTGTTTGTATTATGTGTTTTGTAAATATTAATTCCTGCAGGTTCAGGGTTCTTTAATCATGTTGGGCTGTACCCACACTCAACTTTTGGCCATAAGTGAGTTTCTTAACGAACCTTTTAACACAGGATGTTATTAGGGCCCAATATTTTCCCTGAGGCCTTCTTTGGCCTCTATTTTTTCCCCTTTTCTATCTCCTTGTATTCCGGGCTCACGTGATGCCAATGGACTGACCCATGCGCCCGTGGGGGTTAACTACTGGAGTAGCCAGTAGCTGTAGGTGCTAAAAGTCACGTACGTGTAAGACTGGACGAGACCTCTCAGCTATAACTGAAAGTAGTAAGTATGTCTGAACTTCTTGAAGGGGTAGGCTACGGGTGAAACCCCTTAGGTTAATACTCATATTGAGAGATACCTCTGATAGGTGAAGGTTTCCGGTAGAGGTGAGTTTAACGACAAAGCCTCTCAACGGATGTGGGCCCACCTCATCAGCAAGATGCTTTCATACCCAATACCGTAGGGGCTGGGTTGTTGAGTTCAGTCCCAAGCGTCCCTCCCGCAAGGTTGTAGGGGTACTCAGGGGCATTTAGGTTTCCACAATTAAACAAATACA
# B2: Fipivirus C (nucleic acid)
# chain: CGCGGTTAAACCCGCGCAACCTTCTTTCAGCCGCGTCTGAGTAGCGCGGTTAGTCCTGATACACAGTTTCCTGTTGGGTACTGTGTCTTCGGGTGAATGCTCTTGTGTGAATGTTTTAGGCTGTTTAAGGGAAGCGTTTCCCCGTGCGCTGTGAGGGTTTCTCACGCTCTTTCGGGGTGCAGTCTCTTCTGTTGTTCATTAAGATGTATGGATGCACTGTTGTGAAGGATTTGTGAACTGGGGATCGACACCCCGTGAGGGGTGCCCCAGTGTCCATAGGAGTTTGCTGGAGAGGTGTGTTGCTGTAGTGACTATCCGTGACCTGGCATTCTAAGGTGTTGACCCCAACCTGTGAGGGTCTGGATCGCAGTGTTGAAGTGCTTTGGAGGGTTCAATGGGGTTTCTGTAGTGGATATTATGTGCTTGACGACTACTGGTACGAGTGTATTGGGGGTCTACATGTGTGA
# modifications: lipid formulation; Fipivirus C
# B3: Hepatovirus H2 (nucleic acid, listed as Hepatovirus sp.)
# DNA: GTCATGTTTCTCTTTAAGAACACTCAATTTTGGCCATAAGTGAGACTCTTGTCGAACCTTTCATGTCAGGACCATGTTAGGGCCATTATCCTTTTCCCTGGGGCATTCTTCTTGCCCCTGTTTCATCTTTCTATCATCTTTCTTCCGGGCTCTCACAATGCCAATGGAGCGACCGATGCGCACGTCGGGGTTAACCCATGGATTAGCCATGGGCTGTAGCTGCTAAAAGTTGTGACTCCTGAAGCATACTATCAATGGTAGTAGATGTAACTGAAACACTGAAGCTTCTCTGATCTTGAAAGAAGGGTAGGCTACGGGTGAAACCCTTCAGGTTAATACTCATATTGAGAGATACCTTTGGTAGGTTAACGTTGGCGGATAATGTTGAGTTTAACGACAATAAACATTCAACGCCTGTGGGCGAACCTCACCAATTTCATGCTTTGAAGTGAATGTGCGTAGGGTCTCTATCGGAGATGCTATGTGGATGGTGCCCTCCCTGGAAACAGGTTGTAGGGGTACTCAGGTGCACTTAGGTTTCCACATTTTAAAGATTTTTC
# B4: Fipivirus A (nucleic acid)
# chain: TGCGGGTAAACTCCCGCATGTGTGAATGAGGCGATGTCCCAGGAACTAACTGCCGATCCTGGTTTTAACTACGATCCGTATTTGTTACTAATGCGATATCCCCCCATTGTTTGCCTCCATGTTGTTTTCAACGCTTTTGGCCTTGAGTGTTATCAAGTGTTTTAGCGACATAGTGGGAAGCTACGGCTGCGTCCCCATTTTTGAGTGGCGACCCAGTTTTAGTGGCCACTCTGTCCCTGAACTGCGCTATAATGTGAATTTATGTTCACAAAAACGGACTGATGTAACTGTTAATGACTAAGGAATAGTACCTCACTGAAGTATCAAGACCCCGTTCGAGCGGTGTACATATATGGATGGAAACCTTGTCTGAGTCATCTCGAATACTAATCAATGAGGGATGTCGAGTAAGCATATCATGAACCACATAGAATAGTGGGGTTTCGGGGTTAGAGGCTCTCTGCAGCAATGTATCTCTAACACCATGGCCGAAATGAGAGATAGAGACCACGATGTTTGTGTGTAAGTAATGATGTGTGGAAAGAAAATTCTGAATGTTGGTATGATATCAGTCTAAGGGGAGTGGCTCACCTAAGAGCTACCCAAACATTTCACAGCAGACAACATAACGTACTGAGAGTAGTTGGAAGGTTCCAGAAATCAGT
# modifications: lipid formulation; Fipivirus A
# B5: Hepatovirus I (nucleic acid)
# DNA: GGCTGCCTGTGTCTCAGGGGTAAGTACTGGGGCCGCGTTGACCGTGCGGTACGGTTATGCTTTTAGATTAGGATGTCCGTCTGTCCGGCACTCTCTTTTGCTTAAAATGGCCTTAAATCCATGGGAGGCGTAACCATGGGCCCTTTGTTACCTAGACATGATTGCATTGGGGGCCGTCCTTGGGGCTTAGGCCCCAGCCATTTCTCTTGACTCGTCTAAGAGTTTACTTCATCCTTTTCTTTACTTTATTTTCCAGGCTCTCAGCATGCCGACGGCTCTGACCACTGCGCCCGGTGGGGTTAACTGCATGATTAGCATGCAGCTGTAGGAGTTAAAAGTGCTGACAGGCCAATTCTGACGTAAGTCCACTCTATATTAACTTGATCAAGTAAGGTTGATTGATCTTTGTGAGAGGGTAGGCTACGGGTGAAACCCTCTAGGTTAATACTCATATTGAGAGATACCTCCAGAAGGTGAAGGTTGGCGGATATTGGTGAGTTCTTTTAGGACAAAAACCTTTCAACGCCTGTGGGCCCACCTCACTGGCACAATGCTTTCATCCCCAATTGTGATGGGTAGTTTGGACTGAAATCAGGAGTAACCTGCCCTACGAGTTTAGGGGTAGTTCAGGGGTATTTAGGCTTCCACATTTGATAGAGTTTATGAGAGTGAGCC
# modifications: Hepatovirus I
# B6: Hepatovirus C (nucleic acid)
# DNA: TTCAAAAGCCCCAGCGGGGTTTCATTACCCCGCTGTGGCTTTTGGACTTCCCTAGGATGGGGAAGTAAATTACCATCCTCGCGTTTGCCGTGCGTTAACGGCTACTTTTCTTCTAGCTGTAGAAGTAAAATTCAGCATGTTTTATGTTTGTTTGTCTTGTTTGTTATATACATTTTTACACTCCTACAAATGCACATGAAGAACAGTTTGTAGAGATTAACAAACGCTTAGCTGAACCTAGGTGGTGAATCTAGTAGTAAGATAAGTAGAGGAAGCTATACCTTAAGTTGGTTGGGCCCTCGTGTTTGCTCTATAAACAAAACCAAGTGAGTAGAGTGGATGAACAGTACTAAATCCCTGAGTACAGGGAACCTCACAGGTGTGATACACTTATGTCTATGTGACCTGGTTGGAGGTTGGGCGTGCCCTATGATACTGGAGTGGGAGATCTTTTGGGGAACCCACGTTTTCACACTGCCTGATAGGGTCTTGCCGAGAGACTCACTTGTTTCGGCTGTACTTGTAAC
# modifications: Hepatovirus C
# B7: Fipivirus E (nucleic acid)
# chain: CTCTTCCGATCTTGGGGGTTCGCCCCCATGTCTCATTTCAACTAGCCGTGTGTCTAGTTAACGCACCGCCTCACCCTGGTCGTTATCGGGTCGGTTCTTGCGACCGTTAGATCGTGAGCGTTTCTGAGGATCAGTTCGTATAAGTTCTCCGGTGTGGCGACCGTAAAATCGTCACGTCCCATGCAATAGATGACGTTAAACTCGTTTGCCAGTTACATAAAGGAATGTTGTTACTTTTAAATTGTCTGTTACATTTAACATCTTGCCAGTATGATGCTACTGTACACTACGGGTGTAGGAACCTTGTAGTGTGACGTATCACTCATATGTGGATGGGTGCTCCAGACCTTTATGGAAGCTCTCAGTTAGTAGTGATCCTTGACTTCATTGAGCCCTGGTAACAGTGGAAGTCAAGATGTATATGTTGCTCAACACACTTCGGTGCTACGAAGCTGTTTGTGGAAGTACTGGCGAGGTTCATTCTGAATCATATGTTTGTCACATAGTCAGGGAGTGCCGTCGCTTACGACGGACCCTTTTTCTTTATAATTACAAATCTGTGTCTCAAGTGTTGTTGGCTGGTTTTCTTCTTCTGTTTTCATTGTTCATATATATACGTCAGAGTGAAAGACTCGGTATATACAAAACTGATCCAGA
# modifications: lipid formulation; Fipivirus E
# B8: Limnipivirus C (nucleic acid)
# DNA: GTTTCTGAGCACTGGTAAGAGCTTAGACAAACGTTTTTAAAATTTATTTTCTCTGCAACTTTTGTTTGTGTTTATTTTTATTTGTTAATTTTGCGCCTAAGCATTTGTTGCGAAGTATTTGATTCATTAGTAATATTACTTATTGTTTATTTAGATGGTATTCAAAGTGGTGGGAGTATCGAACCCAAGCGTCGTATGCTATCTCCTTGAACAATTTTTAATCATTGCGAAGTGATCATTGAAAAGGATAGGTGTTTAAGAACTCAAAGAGTGTTAATAATGTTGGGTGACAGGTGTCCCCATAGAATTTATTAACATGATTTGGACTGGTTATCTAGTAAGAAGAACCATCGAACGCACGAGCGAGCATTGCTTGCGGGGCAGTTACCCTGCGTCGATGTAAGTGTGTACCGGGGGGTGCACATGTTGATTCTTTATGGCCTGATAGGGTGCGTCATTCGCGCCTAGATAATTAGTATAATGCGAATGGAATAAATTTAC
# modifications: lipid formulation; Limnipivirus C
# B9: Hepatovirus D (nucleic acid)
# DNA: CTTTGGATGCCCATAGTGCGGGGGTATAAATACCGCACTCCCTTTAGCTGTTCCGAGGGTATCGGAACCTATATGTTTGTTTTCTGTCTGTCTGTCAGCTTTATGTGTGCTCGTCCCCTTTAGGGCACTCATTTCAGCTTGCTTTCATTCTTTTCTTCCCCGGTTCTCACCTTACCGGAGGCACTGGCCGTTGCGCCCGGCGGGGTCAACCTAGTGATTAGCACTAGGCTGTAGGTGTCTAAAGTGGTGACATTAAGACTTGGTAACTGATTTCAGCACTGTTAACTGATGTTGGGGATGACTTGATTGATCTTCTGGAAGGGGTAGGCTACGGGTGAAACCCCTTATCTTAATACCACTATGTAGAGATAGATTCAGTAGGTTAAGGGCAGTGGATAAGGTTGAGTTCATTTTGGACAATAAACCTTCAACACTGGTGGACCCAATCTCACTGACCAGATGCTTTCTTGACTGATCCTTCAGAGGGGTGATTCTTCTGAATAGGTTGCCTTGACACTGATGCCTGAGACCCATTGGGTCGGGCCTTAAATCATGGAACTCCACTGGACTTTCATGGCCTAGCTTCTGCCTTAGACAGACTCTGGGGCCCCACGACCCTCTGGGCCCTTCGGGGTACTCAGGGGCATTTAGGTTTTTCCACAATTAAAAGAGTTA
# modifications: Hepatovirus D
# System: HEK293 cells
# Assay type: cell-based, human
# Conditions: circular RNA encoding Gluc with the listed IRES (UTR truncated to 675 nt) transfected into HEK293 cells; supernatant after 24 hours
row,Molecule,Expression (luminescence from secreted Gluc protein)
1,B1,1.41E+05
2,B2,1.09E+05
3,B3,1.08E+05
4,B4,2.69E+05
5,B5,8.79E+05
6,B6,5.08E+05
7,B7,1.10E+05
8,B8,1.35E+05
9,B9,1.47E+06
